Laboratory results from the RNAGym collection of RNA variant scans (doi:10.1093/nar/gkz1192).

B1: CPEB3 Ribozyme (parent)
chain: UAACAGGGGGCCACAGCAGAAGCGUUCACGUCGCAGCCCCUGUCAGAUUCUGGUGAAUCUGCGAAUUCUGCUGUAUAUCUC

Variants of: B1
Test: self-cleavage, relative activity (ratio to wild type); higher = more cleavage; in vitro, sequencing
Procedure, shortened: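 Barcoded CPEB3 ribozyme mutants, produced by rounds of error-prone PCR, self-cleaved while being transcribed with T7 RNA polymerase for 5 hours at 37°C and during a subsequent 15 min DNase I step before EDTA was added. Sequencing of template-switched cDNA on Illumina gave cleaved and total reads, and DNA sequencing assigned barcodes to variants. Each variant's relative activity is its cleaved/total read fraction divided by the unmutated ribozyme's fraction, averaged across three batches. A variant needed a minimum of 5 reads.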

Variant | self-cleavage
C29U U80A | 0.48
G30A G55A | 0.2
C29U G73C | 1.15
G30A C40U | 0.54
G30A G63U | 0.13
C29U G52U | 0.39
C29U G52A | 0.46
G30C A57G | 0.25
G30A U48C | 0.27
G30A U48A | 0.35
G30A U48G | 0.14
G30U U76A | 0.5
G30U U76C | 0.39
U31A A56G | 0.48
U31A A56U | 0.39
G30U U80C | 0.17
G30U A77G | 0.16
U31A G61A | 0.37
U31A G61C | 0.24
G30A U49A | 0.1
G30A U49C | 0.16

Variant | self-cleavage
G30A U49G | 0.22
U31A U51G | 0.33
U31A U51C | 0.46
U31A U51A | 0.59
G30A C68U | 0.12
G30C U60A | 0.13
G30C U60C | 0.12
C29U U60C | 0.24
C29U U60G | 0.19
C29U U60A | 0.2
G30A U67A | 0.22
G30A U67C | 0.18
U31A A77G | 0.32
U31A A77U | 0.51
G30U C38U | 0.26
C29U U41G | 0.26
C29U U41A | 0.43
C29U U41C | 0.49
G30U A65G | 0.25
G30U A45G | 0.28
G30A U51A | 0.15

Variant | self-cleavage
G30A U51G | 0.1
U31A G55A | 0.41
U31A U43G | 0.33
U31A U43A | 0.7
U31A U43C | 0.37
U31A U78G | 0.46
U31A U78C | 0.46
U31A U78A | 0.41
G30C C40U | 0.23
U31C C38A | 0.33
U31C C38U | 0.98
U31C C38G | 0.16
U31C A35C | 0.46
U31C A35U | 0.32
U31C A35G | 1.21
G30U G42A | 0.23
U31A A47U | 0.29
U31A A47G | 0.54
U31A U80A | 0.61
U31A U80C | 0.66
U31A U80G | 0.55

Variant | self-cleavage
C29U U43C | 0.31
C29U U43G | 0.48
C29U U43A | 0.53
G30A U66C | 0.32
G30A U66A | 0.23
G30C A75G | 0.12
G30A A64G | 0.43
G30A A64U | 0.34
C29U C68U | 0.42
G30U A64G | 0.23
U31A C79U | 0.48
U31A A57G | 0.53
G30C A45U | 0.09
G30C A45C | 0.34
U31C A65U | 0.25
U31C A65G | 0.35
G30C U31C | 0.26
U31C C59U | 0.54
U31C C59A | 0.29
G30A U78C | 0.24
G30A U78A | 0.53
